No end group written: not given here.
How the values were obtained:
[1] = target: neuronal human α7 nicotinic acetylcholine receptor expressed in GH4C1 cells (human) (UniProt P36544); test: radioligand binding
[2] = target: muscle-type nicotinic acetylcholine receptor from Torpedo californica electric organ (Torpedo californica (endogenous in electric organ)); test: radioligand binding
[3] = target: T1, acetylcholine binding protein from Lymnaea stagnalis (Lymnaea stagnalis, UniProt P58154 20-229); test: radioligand binding; settings: both partners purified
T1 construct: also called AChBP; L. stagnalis AChBP

[4] = target: T1, acetylcholine binding protein from …; test: MST; settings: both partners purified
[5] = target: T1, acetylcholine binding protein from …; test: other fluorescence titration; settings: both partners purified
[6] = target: T1, acetylcholine binding protein from …; test: radioligand binding; settings: both partners purified; remark: listed apart in the source

Sequence of muscle-type nicotinic acetylcholine receptor from Torpedo californica electric organ (Torpedo californica (endogenous in electric organ)) (P02710 25-461 limits assumed, chain 1 of 4): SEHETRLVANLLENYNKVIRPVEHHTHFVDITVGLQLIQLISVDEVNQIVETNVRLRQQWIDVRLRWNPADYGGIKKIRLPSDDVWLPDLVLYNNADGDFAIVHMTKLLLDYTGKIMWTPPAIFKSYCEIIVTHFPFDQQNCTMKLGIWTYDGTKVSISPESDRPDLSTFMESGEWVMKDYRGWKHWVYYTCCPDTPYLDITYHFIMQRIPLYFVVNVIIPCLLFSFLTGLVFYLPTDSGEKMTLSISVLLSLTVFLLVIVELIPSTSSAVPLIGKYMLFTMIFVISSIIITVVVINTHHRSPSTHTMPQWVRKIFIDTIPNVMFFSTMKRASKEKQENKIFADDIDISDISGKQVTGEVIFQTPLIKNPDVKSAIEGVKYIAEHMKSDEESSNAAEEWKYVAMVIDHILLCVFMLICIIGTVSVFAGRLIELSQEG
Sequence of muscle-type nicotinic acetylcholine receptor from Torpedo californica electric organ (Torpedo californica (endogenous in electric organ)) (P02712 25-493 limits assumed, chain 2 of 4, further chain): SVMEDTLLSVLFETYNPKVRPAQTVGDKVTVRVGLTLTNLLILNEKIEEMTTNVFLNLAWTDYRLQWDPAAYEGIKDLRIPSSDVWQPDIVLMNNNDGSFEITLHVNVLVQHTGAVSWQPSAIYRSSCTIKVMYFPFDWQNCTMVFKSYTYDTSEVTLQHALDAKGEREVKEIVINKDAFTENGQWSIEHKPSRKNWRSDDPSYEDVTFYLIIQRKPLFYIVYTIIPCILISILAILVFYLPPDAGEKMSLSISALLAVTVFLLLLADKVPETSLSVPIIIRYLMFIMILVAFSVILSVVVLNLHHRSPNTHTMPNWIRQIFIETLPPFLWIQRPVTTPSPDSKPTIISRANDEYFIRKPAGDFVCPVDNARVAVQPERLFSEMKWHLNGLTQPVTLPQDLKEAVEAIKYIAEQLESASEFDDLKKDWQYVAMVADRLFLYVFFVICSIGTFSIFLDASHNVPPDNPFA
Sequence of muscle-type nicotinic acetylcholine receptor from Torpedo californica electric organ (Torpedo californica (endogenous in electric organ)) (P02714 18-506 limits assumed, chain 3 of 4, further chain): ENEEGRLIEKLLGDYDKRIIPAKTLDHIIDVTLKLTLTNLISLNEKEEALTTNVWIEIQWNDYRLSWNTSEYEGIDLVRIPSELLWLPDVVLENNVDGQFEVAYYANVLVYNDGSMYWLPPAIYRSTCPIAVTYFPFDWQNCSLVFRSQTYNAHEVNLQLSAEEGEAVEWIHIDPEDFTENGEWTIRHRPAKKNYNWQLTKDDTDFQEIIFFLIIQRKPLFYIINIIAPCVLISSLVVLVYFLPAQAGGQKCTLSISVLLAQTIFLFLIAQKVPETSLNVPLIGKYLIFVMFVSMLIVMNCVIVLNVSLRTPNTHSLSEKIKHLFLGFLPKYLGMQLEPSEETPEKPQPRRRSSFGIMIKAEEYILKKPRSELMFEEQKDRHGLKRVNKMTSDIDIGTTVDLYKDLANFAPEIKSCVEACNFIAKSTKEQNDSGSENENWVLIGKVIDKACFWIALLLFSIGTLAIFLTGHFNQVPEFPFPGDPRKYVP
Sequence of muscle-type nicotinic acetylcholine receptor from Torpedo californica electric organ (Torpedo californica (endogenous in electric organ)) (P02718 22-522 limits assumed, chain 4 of 4, further chain): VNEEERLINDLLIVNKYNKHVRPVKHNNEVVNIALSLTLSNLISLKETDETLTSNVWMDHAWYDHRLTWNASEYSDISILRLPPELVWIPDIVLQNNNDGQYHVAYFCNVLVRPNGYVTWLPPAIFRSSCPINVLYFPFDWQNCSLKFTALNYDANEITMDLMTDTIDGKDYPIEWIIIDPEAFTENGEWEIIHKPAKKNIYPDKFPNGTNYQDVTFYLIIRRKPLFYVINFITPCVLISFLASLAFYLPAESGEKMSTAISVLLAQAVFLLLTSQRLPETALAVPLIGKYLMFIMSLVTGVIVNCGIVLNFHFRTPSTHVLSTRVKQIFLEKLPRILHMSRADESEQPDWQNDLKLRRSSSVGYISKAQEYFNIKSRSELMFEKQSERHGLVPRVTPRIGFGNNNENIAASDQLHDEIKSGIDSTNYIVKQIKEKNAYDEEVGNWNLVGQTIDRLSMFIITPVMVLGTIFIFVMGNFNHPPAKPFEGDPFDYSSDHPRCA
T1 sequence (P58154 20-229): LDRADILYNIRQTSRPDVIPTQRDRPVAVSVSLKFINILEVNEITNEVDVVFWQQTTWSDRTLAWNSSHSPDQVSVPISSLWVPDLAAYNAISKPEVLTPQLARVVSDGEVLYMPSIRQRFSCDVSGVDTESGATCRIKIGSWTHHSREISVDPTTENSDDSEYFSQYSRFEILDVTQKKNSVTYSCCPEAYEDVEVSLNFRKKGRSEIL
Sequence of neuronal human α7 nicotinic acetylcholine receptor expressed in GH4C1 cells (human) (P36544 23-502): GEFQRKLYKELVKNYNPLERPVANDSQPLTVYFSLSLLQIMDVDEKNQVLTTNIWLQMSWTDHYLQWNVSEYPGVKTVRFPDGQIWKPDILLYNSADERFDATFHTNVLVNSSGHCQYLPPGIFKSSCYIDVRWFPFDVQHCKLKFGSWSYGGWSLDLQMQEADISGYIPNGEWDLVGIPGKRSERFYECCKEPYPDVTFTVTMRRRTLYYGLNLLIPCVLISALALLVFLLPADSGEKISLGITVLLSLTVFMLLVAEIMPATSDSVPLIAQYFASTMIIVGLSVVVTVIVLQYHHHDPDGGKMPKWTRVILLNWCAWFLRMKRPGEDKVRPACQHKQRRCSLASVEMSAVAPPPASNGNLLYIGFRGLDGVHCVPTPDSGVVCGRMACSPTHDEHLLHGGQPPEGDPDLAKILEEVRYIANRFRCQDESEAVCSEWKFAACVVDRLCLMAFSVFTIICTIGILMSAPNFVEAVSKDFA

“HOBDI-BF2–α-CbTx (from UniProt P01391 1-71) (natural protein)” was tested, and the IC50 [1] was 27 nM and the IC50 [2] was 3.88 nM.

With “α-cobratoxin (from UniProt P01391 1-71) (natural protein)” the IC50 [1] was 5.4 nM and the IC50 [2] was 0.57 nM.

For “HOBDI-BF2–Aze (fraction 4, label at Lys6) (peptide)”, the IC50 [2] was 172 nM.

B1: azemiopsin (peptide)
peptide: DNWWPKPPHQGPRPPRPRPKP-NH2
With B1 the IC50 [2] was 7.3 nM.

B2: Fraction 6 of p-HOBDI-BF2-modified azemiopsin (mono-modified product contaminated with a di-labeled product) (peptide)
peptide: DNWWPKPPHQGPRPPRPRPKP-NH2
modifications: also: one p-HOBDI-BF2 label, position not given here
For B2, the IC50 [2] was 210 nM.

B3: α-cobratoxin (natural protein)
chain: IRCFITPDITSKDCPNGHVCYTKTWCDAFCSIRGKRVDLGCAATCPTVKTGVDIQCCSTDNCNPFPTRKRP
With B3 the IC50 [3] was 28 nM.

B4: HOBDI-BF2–α-CbTx (natural protein)
chain: B3 chain
B4 showed a Kd [4] of 194 ± 89 nM, a Kd [5] of roughly 200 nM and an IC50 [3] of 67 nM.

B5: Fraction 5 of p-HOBDI-BF2-modified azemiopsin (mono-modified product) (peptide)
peptide: DNWWPKPPHQGPRPPRPRPKP-NH2
modifications: also: one p-HOBDI-BF2 label, position not given here
B5 showed an IC50 [2] of 128 nM.

B6: ^125I-α-bungarotoxin (natural protein)
chain: IVCHTTATSPISAVTCPPGENLCYRKMWCDAFCSSRGKVVELGCAATCPSKKPYEEVTCCSTDKCNPHPKQRPG
B6: binds [6].

Reference: article PMC8671107 (Frontiers in Molecular Biosciences, 2021)
